Experimental data from EP3048116A1 (International-Drug-Development-Biotech, dated 2016).

B1: Hz033-Mut7 (antibody, human IgG1, kappa)
heavy: EVQLQQSGAEVVKPGASVKLSCKASGFNIKDTFIHWVKQAPGQGLEWIGRIDPANGNTKYDPKFQGKATITTDTSSNTAYMELSSLRSEDTAVYYCVRGLYTYYFDYWGQGTLVTVSSASTKGPSVFPLAPSSKSTSGGTAALGCLVKDYFPEPVTVSWNSGALTSGVHTFPAVLQSSGLYSLSSVVTVPSSSLGTQTYICNVNHKPSNTKVDKKVEPKSCDKTHTCPPCPAPELLGGPSVFLFPPKPKDTLMISRTPEVTCVVVDVSHEDPEVKFNWYVDGVEVHNAKTKPREEQYNSTYRVVSVLTVLHQDWLNGKEYKCKVSNAALPAPIAKTISKAKGQPREPQVYTLPPSRDELTKNQVSLTCLVKGFYPSDIAVEWESNGQPENNYKTTPLVLDSDGSFFLYSKLTVDKSRWQQGNVFSCSVMHEALHNHYTQKSLSLSPGK
light: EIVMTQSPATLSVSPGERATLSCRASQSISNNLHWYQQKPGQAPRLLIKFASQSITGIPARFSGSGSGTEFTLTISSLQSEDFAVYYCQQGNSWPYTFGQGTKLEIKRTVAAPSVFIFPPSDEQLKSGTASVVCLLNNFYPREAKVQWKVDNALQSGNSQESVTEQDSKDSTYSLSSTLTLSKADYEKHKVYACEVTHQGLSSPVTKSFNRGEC
notes: also called Hz033 Mut7 (K326A E333A P396L)
B2: Hz033-Mut8 (antibody, human IgG1, kappa)
heavy: EVQLQQSGAEVVKPGASVKLSCKASGFNIKDTFIHWVKQAPGQGLEWIGRIDPANGNTKYDPKFQGKATITTDTSSNTAYMELSSLRSEDTAVYYCVRGLYTYYFDYWGQGTLVTVSSASTKGPSVFPLAPSSKSTSGGTAALGCLVKDYFPEPVTVSWNSGALTSGVHTFPAVLQSSGLYSLSSVVTVPSSSLGTQTYICNVNHKPSNTKVDKKVEPKSCDKTHTCPPCPAPELLGGPSVFLFPPKPKDTLMISRTPEVTCVVVDVSHEDPEVKFNWYVDGVEVHNAKTKPREEQYNSTLRVVSVLTVLHQDWLNGKEYKCKVSNAALPAPIAKTISKAKGQPREPQVYTLPPSRDELTKNQVSLTCLVKGFYPSDIAVEWESNGQPENNYKTTPLVLDSDGSFFLYSKLTVDKSRWQQGNVFSCSVMHEALHNHYTQKSLSLSPGK
light: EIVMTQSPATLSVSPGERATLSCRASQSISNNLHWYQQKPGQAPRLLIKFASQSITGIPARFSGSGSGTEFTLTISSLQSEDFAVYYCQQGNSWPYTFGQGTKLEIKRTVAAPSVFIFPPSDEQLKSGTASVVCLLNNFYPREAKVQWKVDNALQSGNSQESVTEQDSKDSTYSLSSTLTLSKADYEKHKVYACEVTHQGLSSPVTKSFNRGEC
notes: also called Hz033 Mut8 (Y300L K326A E333A P396L)
B3: Hz033-Mut11 (antibody, human IgG1, kappa)
heavy: EVQLQQSGAEVVKPGASVKLSCKASGFNIKDTFIHWVKQAPGQGLEWIGRIDPANGNTKYDPKFQGKATITTDTSSNTAYMELSSLRSEDTAVYYCVRGLYTYYFDYWGQGTLVTVSSASTKGPSVFPLAPSSKSTSGGTAALGCLVKDYFPEPVTVSWNSGALTSGVHTFPAVLQSSGLYSLSSVVTVPSSSLGTQTYICNVNHKPSNTKVDKKVEPKSCDKTHTCPPCPAPELLGGPSVFLLPPKPKDTLMISRTPEVTCVVVDVSHEDPEVKFNWYVDGVEVHNAKTKPPEEQYNSTLRVVSLLTVLHQDWLNGKEYKCKVSNAALPAPIAKTISKAKGQPREPQVYTLPPSRDELTKNQVSLTCLVKGFYPSDIAVEWESNGQPENNYKTTPLVLDSDGSFFLYSKLTVDKSRWQQGNVFSCSVMHEALHNHYTQKSLSLSPGK
light: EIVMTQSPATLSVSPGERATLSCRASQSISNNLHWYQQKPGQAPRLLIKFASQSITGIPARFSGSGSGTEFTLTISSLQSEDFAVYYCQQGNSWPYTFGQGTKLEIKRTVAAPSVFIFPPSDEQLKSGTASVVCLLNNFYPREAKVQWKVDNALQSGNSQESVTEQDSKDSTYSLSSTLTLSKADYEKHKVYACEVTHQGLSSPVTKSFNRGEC
notes: also called Hz033 Mut11 (F243L R292P Y300L V305L K326A E333A P396L)

molecular target: T1, Purified human sDR5 (human, UniProt O14763 56-182, limits assumed); test: SPR (Biacore), MAb captured on immobilised GAH, sDR5 injected at 40 nM to 2.5 nM
T1 construct: Analyte in the Biacore assay; only called 'purified human sDR5'

For B1, which Kd is on record?
Its Kd is 0.426 nM.

With B2 as the binder, how does the Kd read?
Its Kd is 0.4 nM.

For B3, which Kd is on record?
The Kd was 0.464 nM.
